Measurements published in PMC10716131, “Structural and biophysical comparisons of the pomalidomide- and CC-220-induced interactions of SALL4 with cereblon” (Scientific Reports, 2023).

Target: T1, DDB1:CRBN complex, full-length human CRBN (residues 1–442) with N-terminal biotinylated Avi-tag, co-expressed … (human, UniProt Q96SW2 1-442; Q16531 1-1140, biotin on the Avi-tag (BirA, 100% efficiency))
T1 construct: cereblon (CRBN), human, full-length, residues 1–442; DDB1, human, residues 1–1140; A 6xGS linker stands between the non-cleavable Avi-tag and CRBN; The host is named (Sf21) only for the crystallisation construct; also called DDB1:N-avi-biotin-CRBN; DDB1:N-avi-CRBN; source: biotinylated with BirA; not shown: Avi-tag, N-terminal, kept
T1 sequence (Q96SW2 whole entry, chain 1 of 2, the tested form may be a part): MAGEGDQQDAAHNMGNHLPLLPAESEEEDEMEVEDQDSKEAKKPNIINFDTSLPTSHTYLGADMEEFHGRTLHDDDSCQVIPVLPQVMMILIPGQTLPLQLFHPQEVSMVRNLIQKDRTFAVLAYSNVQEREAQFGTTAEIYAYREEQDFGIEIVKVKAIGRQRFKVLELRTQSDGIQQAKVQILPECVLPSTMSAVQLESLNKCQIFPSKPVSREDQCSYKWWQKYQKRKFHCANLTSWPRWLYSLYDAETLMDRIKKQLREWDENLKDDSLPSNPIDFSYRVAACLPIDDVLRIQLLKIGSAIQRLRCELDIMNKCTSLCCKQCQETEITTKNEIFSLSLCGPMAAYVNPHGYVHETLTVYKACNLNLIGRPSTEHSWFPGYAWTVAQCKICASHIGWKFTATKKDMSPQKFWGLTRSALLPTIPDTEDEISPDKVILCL
T1 sequence (Q16531 whole entry, chain 2 of 2, the tested form may be a part): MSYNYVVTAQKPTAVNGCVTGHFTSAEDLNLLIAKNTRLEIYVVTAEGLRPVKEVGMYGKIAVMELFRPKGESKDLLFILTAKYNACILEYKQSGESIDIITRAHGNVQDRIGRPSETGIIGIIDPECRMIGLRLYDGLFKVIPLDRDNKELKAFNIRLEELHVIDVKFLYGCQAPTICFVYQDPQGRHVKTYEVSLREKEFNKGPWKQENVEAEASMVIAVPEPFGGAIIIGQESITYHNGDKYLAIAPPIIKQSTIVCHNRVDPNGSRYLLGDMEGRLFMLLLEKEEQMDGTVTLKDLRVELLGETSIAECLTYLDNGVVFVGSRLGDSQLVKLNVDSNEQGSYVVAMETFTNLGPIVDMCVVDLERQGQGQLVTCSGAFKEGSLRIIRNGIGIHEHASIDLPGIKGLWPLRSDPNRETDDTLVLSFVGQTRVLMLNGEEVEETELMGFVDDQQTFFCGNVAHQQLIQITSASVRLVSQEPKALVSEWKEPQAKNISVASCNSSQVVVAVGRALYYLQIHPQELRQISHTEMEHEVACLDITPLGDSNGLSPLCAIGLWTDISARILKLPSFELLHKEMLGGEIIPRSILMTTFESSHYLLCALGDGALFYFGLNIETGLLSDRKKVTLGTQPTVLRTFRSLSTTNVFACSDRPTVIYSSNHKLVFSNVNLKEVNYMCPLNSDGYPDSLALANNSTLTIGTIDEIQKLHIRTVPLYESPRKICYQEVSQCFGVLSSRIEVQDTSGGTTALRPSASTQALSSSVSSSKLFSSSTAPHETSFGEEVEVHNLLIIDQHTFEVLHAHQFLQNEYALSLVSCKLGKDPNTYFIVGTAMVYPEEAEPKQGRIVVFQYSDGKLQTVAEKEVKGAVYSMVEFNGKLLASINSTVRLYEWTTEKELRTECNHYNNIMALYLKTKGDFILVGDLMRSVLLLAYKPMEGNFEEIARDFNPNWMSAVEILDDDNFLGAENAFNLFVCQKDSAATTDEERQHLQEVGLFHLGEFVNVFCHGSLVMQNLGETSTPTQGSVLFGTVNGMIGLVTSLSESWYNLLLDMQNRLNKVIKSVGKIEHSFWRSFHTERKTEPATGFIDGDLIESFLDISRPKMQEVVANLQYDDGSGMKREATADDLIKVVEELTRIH
Experiment: SPR; DDB1:N-avi-biotin-CRBN immobilised on a streptavidin sensor (~5000–7000 RU), Biacore 8k, ABA method; SALL4 zinc fingers in 2X dilution series with 5 μM pomalidomide throughout; PBS pH 7.2, 5% glycerol, total NaCl ~300 mM, 0.01% P20, 1 mM TCEP, 0.05% DMSO; 15 °C; 30 µL/minute; 1:1 kinetic modelling
Settings: both partners purified

B1: Human SALL4 ZF1(370–409) (domain or fragment, UniProt Q9UJQ4 370-409, looked up)
chain: DVKPKDEAALYKHKCKYCSKVFGTDSSLQIHLRSHTGERP
notes: not shown: Twin-Strep-ZZ, N-terminal, cleaved
In the case of B1, the KD with pomalidomide is reported as > 50 µM.
